This is an account of results in US20190078065A1, “MODIFIED DNA POLYMERASES” (SIGMA-ALDRICH CO. LLC, priority 2017, published 2019).

Common to all, as to type: biochemical
For assay [1], the system named is 3′-O-carbamate or ester blocked nucleotides. In words: template-free DNA synthesis reaction: incorporation of 3′-O-blocked nucleotides. The settings on record: template-independent, dNTP1, 2, 3, 5, 6 of Table 2; FIG. 5. An excerpt:
The ability of the PolM-loop1 chimera, Hs PolM-Lp1, to incorporate 3′-O-blocked nucleotides was examined in a template-free DNA synthesis reaction.

Assay [2] shares this test system. Description: incorporation of 3′-O-blocked nucleotides, mutant vs. wild type polymerase, quantified by densitometry. The note with it: for rates of incorporation of 3′-O-carbamate or ester blocked nucleotides as compared to wild type (WT) Hs PolM: densitometry. An excerpt:
The incorporation of 3′-O-carbamate or ester blocked nucleotides by the PolM-loop1 chimera, Hs PolM-Lp1, or the truncated PolM-loop1 chimera, Hs tPolM-Lp1 was compared to that of wild type Hs PolM. The amount of incorporation was quantified by densitometry.

The test system of assay [3] is 3′-O-blocked adenosine 5′-triphosphates. In words: incorporation of 3′-O-blocked adenosine, comparison with Bt TdT.

B1: Hs PolM-Lp1: Homo sapiens PolM, Loop 1 domain swap (protein)
chain: MLPKRRRARVGSPSGDAASSTPPSTRFPGVAIYLVEPRMGRSRRAFLTGLARSKGFRVLDACSSEATHVVMEETSAEEAVSWQERRMAAAPPGCTPPALLDISWLTESLGAGQPVPVECRHRLEVAGPRKGPLSPAWMPAYACQRPTPLTHHNTGLSEALEILAEAAGFEGSEGRLLTFCRAASVLKALPSPVTTLSQLQGLPHFGEHSSRVVQELLEHGVCEEVERVRRSERYQTMKLFTQIFGVGVKTADRWYREGLRTLDDLREQPQKLTQQQKAGLQHHQDLSTPVLRSDVDALQQVVEEAVGQALPGATVTLTGGFRRGKLQGHDVDFLITHPKEGQEAGLLPRVMCRLQDQGLILYHQHQESTFEKLRLPSRKVDALDHFERSFCIFRLPQPPGAAVGGSTRPCPSWKAVRVDLVVAPVSQFPFALLGWTGSKLFQRELRRFSRKEKGLWLNSHGLFDPEQKTFFQAASEEDIFRHLGLEYLPPEQRNA
On to B1, for which the “incorporation of 3′-O-carbamate or ester blocked nucleotides” value in assay [1] is listed as “successfully incorporated”. In assay [2], the “rates of incorporation of 3′-O-carbamate or ester blocked nucleotides as compared to wild type (WT) Hs PolM” value is given as “significantly increased”.

B2: Hs tPolM-Lp1: Homo sapiens PolM, Loop 1 domain swap and N-terminal truncation (Δ 1-108) (protein)
chain: MLGAGQPVPVECRHRLEVAGPRKGPLSPAWMPAYACQRPTPLTHHNTGLSEALEILAEAAGFEGSEGRLLTFCRAASVLKALPSPVTTLSQLQGLPHFGEHSSRVVQELLEHGVCEEVERVRRSERYQTMKLFTQIFGVGVKTADRWYREGLRTLDDLREQPQKLTQQQKAGLQHHQDLSTPVLRSDVDALQQVVEEAVGQALPGATVTLTGGFRRGKLQGHDVDFLITHPKEGQEAGLLPRVMCRLQDQGLILYHQHQESTFEKLRLPSRKVDALDHFERSFCIFRLPQPPGAAVGGSTRPCPSWKAVRVDLVVAPVSQFPFALLGWTGSKLFQRELRRFSRKEKGLWLNSHGLFDPEQKTFFQAASEEDIFRHLGLEYLPPEQRNA
For the molecule B2, the “Fold increase Hs tPolM-Lp1 vs. Hs PolM-Lp1” value in assay [2] (Blocking group 1) is listed as 2.2 Fold; in assay [2] (Blocking group 2), 2.1 Fold; in assay [2] (Blocking group 3) it was 2.0 Fold; in assay [2] (Blocking group 5), 1.3 Fold; in assay [2] (Blocking group 6 (artificial base-5SICS)), 3.0 Fold; in assay [2] (Blocking group 6 (standard base)), 2.0 Fold. Besides, the “rates of incorporation of 3′-O-carbamate or ester blocked nucleotides as compared to wild type (WT) Hs PolM” value in assay [2] was “significantly increased”. The “increase in incorporation relative to Bt TdT” value in assay [3] is 2.7 fold.
